# Assay results from IntAct's records for PubMed 30026228.
# B1: Zinc fingers and homeoboxes protein 2 (Homo sapiens), Q9Y6X8 (parent)
# chain: MASKRKSTTPCMVRTSQVVEQDVPEEVDRAKEKGIGTPQPDVAKDSWAAELENSSKENEVIEVKSMGESQSKKLQGGYECKYCPYSTQNLNEFTEHVDMQHPNVILNPLYVCAECNFTTKKYDSLSDHNSKFHPGEANFKLKLIKRNNQTVLEQSIETTNHVVSITTSGPGTGDSDSGISVSKTPIMKPGKPKADAKKVPKKPEEITPENHVEGTARLVTDTAEILSRLGGVELLQDTLGHVMPSVQLPPNINLVPKVPVPLNTTKYNSALDTNATMINSFNKFPYPTQAELSWLTAASKHPEEHIRIWFATQRLKHGISWSPEEVEEARKKMFNGTIQSVPPTITVLPAQLAPTKVTQPILQTALPCQILGQTSLVLTQVTSGSTTVSCSPITLAVAGVTNHGQKRPLVTPQAAPEPKRPHIAQVPEPPPKVANPPLTPASDRKKTKEQIAHLKASFLQSQFPDDAEVYRLIEVTGLARSEIKKWFSDHRYRCQRGIVHITSESLAKDQLAIAASRHGRTYHAYPDFAPQKFKEKTQGQVKILEDSFLKSSFPTQAELDRLRVETKLSRREIDSWFSERRKLRDSMEQAVLDSMGSGKKGQDVGAPNGALSRLDQLSGAQLTSSLPSPSPAIAKSQEQVHLLRSTFARTQWPTPQEYDQLAAKTGLVRTEIVRWFKENRCLLKTGTVKWMEQYQHQPMADDHGYDAVARKATKPMAESPKNGGDVVPQYYKDPKKLCEEDLEKLVTRVKVGSEPAKDCLPAKPSEATSDRSEGSSRDGQGSDENEESSVVDYVEVTVGEEDAISDRSDSWSQAAAEGVSELAESDSDCVPAEAGQA
# Variants of: B1
# Conditions: with vhl_human VHL
row,effect of a mutation on the interaction,Variant
1,decreasing interaction strength,P427A
2,decreasing interaction strength,P464A
3,disrupting interaction strength,P427A;P440A;P464A
4,decreasing interaction strength,P440A
